Patent publication US20140179700A1

How the values were obtained:
[1] = test system: myelin basic protein (MBP) (Millipore)
[2] = target: myelin basic protein (MBP) (Millipore); assay: cell-based or functional assay

Substance	phosphorylation of MBP by immunoprecipitated ERK1/2 (anti-phosphoMBP immunoblot) [1]	MBP phosphorylation by ERK1/2 from epinephrine-treated SS RBCs compared to ERK1/2 from sham-treated cells (fold) [2] [fold]
ERK1/2 immunoprecipitated from SS RBCs	ERK1/2 immunoprecipitated from sham-treated SS RBCs was capable of phosphorylating MBP to some extent	
ERK1/2 immunoprecipitated from SS RBCs (enzyme)		2.1
